{
  "source": "the RNAGym collection of RNA variant scans (doi:10.1073/pnas.2313332121)",
  "parents": {"B1": {"name": "TPR 5TU (parent)", "chain": "GGAUCUUCUCGAUCUAACAAAAAAGACAAAUCUGCCACAAAGCUUGAGAGCAUCUUCGGAUGCAGAGGCGGCAGCCUUCGGUGGCGCGAUAGCGCCAACGUUCUCAACUAUGACACGCAAAACGCGUGCUCCGUUGAAUGGAGUUUAUCAUG"}},
  "note": "Fewer inactive variants are shown than the library holds.",
  "data": [
    {"variants_of": "B1", "assay": "polymerase ribozyme fitness, log enrichment relative to wild type (log ratio); higher = more active; in vitro selection for triplet polymerase activity", "summary_of_the_method": "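PCR was used to build mutant libraries for each subunit of a heterodimeric triplet polymerase ribozyme, which were then transcribed. A single in vitro selection round, in triplicate, used a frozen incubation at −7 °C and recovered extended constructs by gel excision, streptavidin beads and RT-PCR. Fitness is the logarithm of genotype enrichment relative to wild-type enrichment, averaged over replicates with inverse-variance weights. The logarithm is base 2, and after Illumina sequencing only genotypes with ≥10 input reads and ≥1 read per output were kept.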", "values": [
      {"variant": "G59A A119U", "polymerase ribozyme fitness (log ratio)": -0.778},
      {"variant": "G59A A60G G94U C95A", "polymerase ribozyme fitness (log ratio)": -1.74},
      {"variant": "G59U G94A A98G", "polymerase ribozyme fitness (log ratio)": -1.07},
      {"variant": "G59U C69G G88C C125A", "polymerase ribozyme fitness (log ratio)": "≤ -4.2"},
      {"variant": "G59U C85U A150U", "polymerase ribozyme fitness (log ratio)": 1.1},
      {"variant": "G59A C85U U134A", "polymerase ribozyme fitness (log ratio)": -3.92},
      {"variant": "A60C G83U A121U", "polymerase ribozyme fitness (log ratio)": -2.35},
      {"variant": "G59C G124A", "polymerase ribozyme fitness (log ratio)": -1.57},
      {"variant": "A60G C79G", "polymerase ribozyme fitness (log ratio)": -3.75},
      {"variant": "G59A C93U A98U A138C", "polymerase ribozyme fitness (log ratio)": "≤ -4.2"},
      {"variant": "G58U C87A U109C U148C", "polymerase ribozyme fitness (log ratio)": "≤ -4.2"},
      {"variant": "G58C C85U A89G G136A", "polymerase ribozyme fitness (log ratio)": -3.96},
      {"variant": "G58C C69A", "polymerase ribozyme fitness (log ratio)": -2.62},
      {"variant": "G59A C79U", "polymerase ribozyme fitness (log ratio)": -3.86},
      {"variant": "G59U C93A G133A A138U G141A", "polymerase ribozyme fitness (log ratio)": "≤ -4.2"},
      {"variant": "G58U G152U", "polymerase ribozyme fitness (log ratio)": -2.71},
      {"variant": "G59C G126U", "polymerase ribozyme fitness (log ratio)": 0.134},
      {"variant": "G59C G126A", "polymerase ribozyme fitness (log ratio)": 0.0741},
      {"variant": "G59U A91U G141A", "polymerase ribozyme fitness (log ratio)": "≤ -4.2"},
      {"variant": "G58C G62C C95G", "polymerase ribozyme fitness (log ratio)": -3.72},
      {"variant": "G58U C129G", "polymerase ribozyme fitness (log ratio)": -2.47},
      {"variant": "G58C A107C", "polymerase ribozyme fitness (log ratio)": -4.06},
      {"variant": "G58C C87U", "polymerase ribozyme fitness (log ratio)": -1.59},
      {"variant": "G58C C87A", "polymerase ribozyme fitness (log ratio)": "≤ -4.2"},
      {"variant": "G58U G81A A122G", "polymerase ribozyme fitness (log ratio)": -0.315},
      {"variant": "G59A G83U", "polymerase ribozyme fitness (log ratio)": -1.06},
      {"variant": "G58C C96G", "polymerase ribozyme fitness (log ratio)": -1.88},
      {"variant": "G59U C76U C105A A113U C116U", "polymerase ribozyme fitness (log ratio)": "≤ -4.2"},
      {"variant": "G58U A97G A98G G117U U146G", "polymerase ribozyme fitness (log ratio)": -0.542},
      {"variant": "G59A C85U U102G A106C G141A", "polymerase ribozyme fitness (log ratio)": "≤ -4.2"},
      {"variant": "G59U A91U", "polymerase ribozyme fitness (log ratio)": -4.12},
      {"variant": "G59A G88U C116G", "polymerase ribozyme fitness (log ratio)": -3.56},
      {"variant": "G59C C85G C95U C116A", "polymerase ribozyme fitness (log ratio)": -2.38},
      {"variant": "A60C G71A C85A G143C", "polymerase ribozyme fitness (log ratio)": "≤ -4.2"},
      {"variant": "G59C C114U G128A A142U", "polymerase ribozyme fitness (log ratio)": -2.5},
      {"variant": "G58C C63G C96G", "polymerase ribozyme fitness (log ratio)": -0.61},
      {"variant": "G58C U134G", "polymerase ribozyme fitness (log ratio)": -3.93},
      {"variant": "A60C C87A A98U", "polymerase ribozyme fitness (log ratio)": "≤ -4.2"},
      {"variant": "G59A C87U U101G G136C", "polymerase ribozyme fitness (log ratio)": -2.91},
      {"variant": "A60C C85A C116A", "polymerase ribozyme fitness (log ratio)": -1.6},
      {"variant": "A60C G67C A73G G81A C114A G136C", "polymerase ribozyme fitness (log ratio)": "≤ -4.2"},
      {"variant": "G59C U61A", "polymerase ribozyme fitness (log ratio)": -1.51},
      {"variant": "G58C A122G A150C", "polymerase ribozyme fitness (log ratio)": -3.46},
      {"variant": "A60G A73G G92U", "polymerase ribozyme fitness (log ratio)": 0.661},
      {"variant": "G58C G86U C105A", "polymerase ribozyme fitness (log ratio)": -2.89},
      {"variant": "G59A G84U G92C C95G G124C", "polymerase ribozyme fitness (log ratio)": -2.69},
      {"variant": "G58U A142C", "polymerase ribozyme fitness (log ratio)": -0.408},
      {"variant": "G59A C99A G140U", "polymerase ribozyme fitness (log ratio)": -3.99},
      {"variant": "A60G", "polymerase ribozyme fitness (log ratio)": 0.0111},
      {"variant": "A60C", "polymerase ribozyme fitness (log ratio)": -0.597},
      {"variant": "G59A C118G U130A C132G G140A", "polymerase ribozyme fitness (log ratio)": "≤ -4.2"},
      {"variant": "G59A C75G G94U C95U", "polymerase ribozyme fitness (log ratio)": -3.76},
      {"variant": "A60C U148G A150U", "polymerase ribozyme fitness (log ratio)": "≤ -4.2"},
      {"variant": "G59A C85U", "polymerase ribozyme fitness (log ratio)": -1.79},
      {"variant": "G58C A98U", "polymerase ribozyme fitness (log ratio)": -0.459},
      {"variant": "G58C C87U U135A", "polymerase ribozyme fitness (log ratio)": -2.15},
      {"variant": "A60C A91U C118A", "polymerase ribozyme fitness (log ratio)": "≤ -4.2"},
      {"variant": "G58U G68A C95U", "polymerase ribozyme fitness (log ratio)": -4.01},
      {"variant": "G59C C93U C116U U135G", "polymerase ribozyme fitness (log ratio)": -3.78},
      {"variant": "G59C U78C G83A", "polymerase ribozyme fitness (log ratio)": -0.666},
      {"variant": "G59A G70U C93G A113U", "polymerase ribozyme fitness (log ratio)": "≤ -4.2"},
      {"variant": "A60G C93G", "polymerase ribozyme fitness (log ratio)": -3.44},
      {"variant": "G59C A106U", "polymerase ribozyme fitness (log ratio)": -0.917},
      {"variant": "G59C G86C C118A", "polymerase ribozyme fitness (log ratio)": -2.85},
      {"variant": "G59A A115G G140A", "polymerase ribozyme fitness (log ratio)": "≤ -4.2"},
      {"variant": "G58U A64G A91G A113U U135A", "polymerase ribozyme fitness (log ratio)": "≤ -4.2"},
      {"variant": "A60G A150G", "polymerase ribozyme fitness (log ratio)": -0.0266},
      {"variant": "G59U U102G", "polymerase ribozyme fitness (log ratio)": -3.26},
      {"variant": "A60G A89G", "polymerase ribozyme fitness (log ratio)": -0.778},
      {"variant": "G58C G86C A89U", "polymerase ribozyme fitness (log ratio)": -3.91},
      {"variant": "A60G C75G", "polymerase ribozyme fitness (log ratio)": -2.36},
      {"variant": "G58U G88C U130G", "polymerase ribozyme fitness (log ratio)": "≤ -4.2"},
      {"variant": "G59A G140C U144G", "polymerase ribozyme fitness (log ratio)": -3.79},
      {"variant": "G58C C93U", "polymerase ribozyme fitness (log ratio)": -1.71},
      {"variant": "A60G C87U U101A", "polymerase ribozyme fitness (log ratio)": -0.517},
      {"variant": "G58U G128U", "polymerase ribozyme fitness (log ratio)": -3.02},
      {"variant": "G58C U139C", "polymerase ribozyme fitness (log ratio)": -3.3},
      {"variant": "G58U U82A G84U", "polymerase ribozyme fitness (log ratio)": -0.648},
      {"variant": "G59U G68A G83A A89U G94U G128U", "polymerase ribozyme fitness (log ratio)": "≤ -4.2"},
      {"variant": "G59C A89C C93U G117C A120G U135A", "polymerase ribozyme fitness (log ratio)": -3.35},
      {"variant": "G59A C93G", "polymerase ribozyme fitness (log ratio)": -3.78},
      {"variant": "G59A C93A", "polymerase ribozyme fitness (log ratio)": -3.22},
      {"variant": "G59A C93U", "polymerase ribozyme fitness (log ratio)": -3.33},
      {"variant": "G58U U135C", "polymerase ribozyme fitness (log ratio)": -1.62}
    ]}
  ]
}
